# Laboratory results published in the RNAGym collection of RNA variant scans (doi:10.7554/elife.90254).
# B1: OR4K15 (parent)
# chain: GUUAACGGUCAUAGGCCAUGGAAACUAGGAGCACCAUUUCGCUGCCAGUGAAGAAAUGAACAAAGAAAAUCUGGGCCAGGCAGGCAUCAAAAGAAAUAGUCUUGCGCUCAACCAGAAAGUCUGUAAUCAUUUUAAGGGUA
# Variants of: B1
# Assay: self-cleavage, relative activity (ratio to wild type); higher = more cleavage; in vitro, sequencing; the parent is a self-cleaving ribozyme
row,Variant,self-cleavage
1,C77U C113U,0.27
2,G48A,1.44
3,U19A A118G,0.88
4,U72C U108C,0.01
5,A18G G83A,1.54
6,A91G A92U,1.43
7,A129G A135G,1.08
8,A22U A78U,0.33
9,U72C A129U,0.07
10,A47G A89U,0.42
11,G79A U139C,0.11
12,A47C U70C,0.23
13,G74U G119A,0.19
14,A11U U87A,1.75
15,A51U A82G,0.68
16,G58U U102C,1.68
17,A59G C101A,0.13
18,U57C G106A,0
19,A11U A110U,1.19
20,U2C A60G,1.02
21,U39C C71A,0.38
22,A33U A56G,1.57
23,A52G A59U,1.28
24,U49C A56C,1.25

row,Variant,self-cleavage
1,A23G U120G,1.48
2,G41A A94G,1.9
3,A36U U38C,1.51
4,U122C G138U,1.37
5,U38A A56G,0.94
6,U72C A114G,2.31
7,A90U U103A,0.34
8,A67G U72C,0.32
9,C17G U39A,1.07
10,A13G A59G,0.59
11,U9A C42A,0.53
12,A52C A111G,0
13,A18U A92U,1.25
14,U39A U57C,0.73
15,C25U A59G,1.24
16,A27G A95U,1.2
17,U19C U97A,1.34
18,U2A A47U,0.78
19,U87C U102G,0.27
20,A51G A86U,1.56
21,A27G A129U,0.72
22,A54G C85A,0.82
23,C6A A64G,1.24
24,A30U C107A,0.01

row,Variant,self-cleavage
1,U72C A78C,0.27
2,U43A,1.58
3,U3C A23G,1.22
4,U38G A86U,1.6
5,A27U A96G,1.6
6,U39A A69U,0.83
7,U19C A67U,1.67
8,U19C U132C,1.24
9,C16A U124A,0.4
10,C6U A47U,0.51
11,U49G U108C,0.01
12,U102A U122C,0.55
13,U57C U100C,1.83
14,A30G A117C,0.61
15,A62G A64U,1.23
16,C77U U87C,1.31
17,G7U A92G,1.66
18,A55G A90U,2.14
19,A62U A117G,1.64
20,A129G A134U,1.02
21,U3A A55C,1.31
22,G48A A59G,1.25
23,A111G A117C,0
24,G48A U120C,1.38

row,Variant,self-cleavage
1,A111G U127A,0.01
2,G136U,1.07
3,A23G A111C,0
4,A23G A30G,1.1
5,U12A,1.19
6,A86G A94U,2.2
7,A91U U132A,1.98
8,A18U A117U,0.76
9,A95G U132C,2.35
10,A54G A94C,1.32
11,U19G G115A,0.38
12,G48A A51G,2.22
13,A125G A129U,0.01
14,A91G G104A,0.02
15,U38A A98G,0.91
16,A36G G79A,0.1
17,U49C A55U,1.67
18,A36U U139A,2.31
19,A33C U38C,1.53
20,A78G A89G,0.18
21,C34U C105U,0.4
22,U102C C113U,0.33
23,A62U A140G,0.67
24,G7A A66G,1.18

row,Variant,self-cleavage
1,U43C G138A,2.16
2,U49A U102A,0.95
3,A89G A98U,2.15
4,A18G A78U,0.35
5,U39C A117U,1.08
6,A56G G115A,0.11
7,G41U A52G,1.47
8,C32A A90G,1.27
9,A22G U102G,1.05
10,A4G A55G,1.13
11,A33C U122C,1.09
12,A22G G31A,1.19
13,A68G U124A,0.95
14,A22U A135G,0.4
15,A52U A116G,1
16,A89G A118C,0.01
17,A51G G65A,1.12
18,A86C A95G,1.34
19,U130C A134G,0.27
20,C16G A135G,0.74
21,A5G U49C,0.97
22,A117U A129U,0.62
23,A11G A126U,1.17
24,A78U A82G,0.08

row,Variant,self-cleavage
1,A51G C76A,0.07
2,U2A U12C,1.41
3,U108C U133C,0.02
4,U37C A54G,1.51
5,A66G A95U,0.2
6,G7C U72A,0.38
7,A52G G74A,0.13
8,A22G A140U,0.8
9,G80A A82C,0.14
10,C10U U108C,0.06
11,A90G A110G,0.1
12,A67G G83A,2.38
13,A89G A96U,1.27
14,U12C A18C,0.58
15,A86G U124A,0.4
16,U38A U131C,1.16
17,C40U U132A,1.27
18,A33G A89G,0.84
19,A51C U72A,0.19
20,U122C U132C,0.49
21,U3C A89C,0.91
22,G104A,0.04
23,A36G G104A,0.07
24,A63G U139C,1.1

row,Variant,self-cleavage
1,A33G A125U,1.17
2,U9A U108A,0
3,U37A U72C,0.37
4,U9C A96G,1.35
5,G65C A111G,0.01
6,A114G U124C,0.07
7,U9C A52U,1.23
8,G99U,0.51
9,G99A,0.56
10,A89G U132C,1.4
11,A60G A129U,1.14
12,A54U,1.2
13,U9A U130C,1.33
14,U87C A126U,1.18
15,C10U U39C,1.02
16,A60G G80U,0.09
17,U39C A125G,0.66
18,A60G U108A,0.02
19,U87A U120C,1.28
20,G41A U124C,1.02
21,A86G U103A,0.93
22,A110U A118U,0.75
23,A5G C113U,0.16
